{"source": "patent US20060257955", "proteins": {"B1": {"name": "E. coli outer membrane protease OmpT (protein)", "chain": "STETLSFTPDNINADISLGTLSGKTKERVYLAEEGGRKVSQLDWKFNNAAIIKGAINWDLMPQISIGAAGWTTLGSRGGNMVDQDWMDSSNPGTWTDESRHPDTQLNYANEFDLNIKGWLLNEPNYRLGLMAGYQESRYSFTARGGSYIYSSEEGFRDDIGSFPNGERAIGYKQRFKMPYIGLTGSYRYEDFELGGTFKYSGWVESSDNDEHYDPGKRITYRSKVKDQNYYSVAVNAGYYVTPNAKVYVEGAWNRVTNKKGNTSLYDHNNNTSDYSKNGAGIENYNFITTAGLKYTF"}}, "molecular_target": "T1, labeled peptide ecot2 (T2), Dabcyl-KVSRRRRRGGD-Edans (not fully specified)", "T1 chain": "KVSRRRRRGGD", "data": [{"protein": "B1", "values": [{"measurement": "protease assay (cleavage of substrate T2, relative fluorescence), buffer with 5% fetal bovine serum", "result": "detection of the presence of E. coli in the E. coli sample occurred in the presence of FBS"}, {"measurement": "protease assay (cleavage of substrate T2, relative fluorescence), simulated wound fluid buffer with 5% bovine serum albumin", "result": "the protease reactivity of the E. coli sample was not affected by the simulated wound fluid buffer"}]}]}
